Measurements taken from paper PMC8179448.
Where two headings read alike, the source gives them in different places.

Tests used:
14-3-3ζ [1] = molecular target: 14-3-3ζ (UniProt P63104); experiment: ITC; settings: for binding against the reference: reference: 240pi
14-3-3ζ [2] = molecular target: 14-3-3ζ (UniProt P63104); experiment: fluorescence polarisation
14-3-3ζ [3] = molecular target: 14-3-3ζ (UniProt P63104); experiment: fluorescence polarisation; remark: listed apart in the source
14-3-3ζ [4] = molecular target: 14-3-3ζ (UniProt P63104); experiment: fluorescence polarisation titration, FAM-labelled peptides; settings: for binding against the reference: reference: 240pi
14-3-3ζ [5] = molecular target: 14-3-3ζ (UniProt P63104); experiment: fluorescence polarisation; remark: listed apart in the source
14-3-3ζ [6] = molecular target: 14-3-3ζ (UniProt P63104); experiment: fluorescence polarisation; remark: listed apart in the source
14-3-3ζ protein, P63104 = molecular target: T1, 14-3-3ζ protein, P63104; experiment: native gel or EMSA + cross-linking + other: MALDI-TOF; settings: remark: other sources report otherwise
T1 chain: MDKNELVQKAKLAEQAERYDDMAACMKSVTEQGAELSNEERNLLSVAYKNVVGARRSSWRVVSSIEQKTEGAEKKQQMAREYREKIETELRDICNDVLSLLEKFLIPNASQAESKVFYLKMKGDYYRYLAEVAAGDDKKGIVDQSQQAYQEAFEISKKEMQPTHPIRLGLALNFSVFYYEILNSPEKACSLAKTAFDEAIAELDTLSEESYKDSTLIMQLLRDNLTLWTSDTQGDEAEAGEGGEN

Rnd3 C-terminal peptide (207–241) no_piFar, farnesylated, without phosphate (from UniProt P61587 207-241)
dH (14-3-3ζ [1]): 0.703 kcal/mol

Rnd3 C-terminal peptide (207–241) 210_240pi (from UniProt P61587 207-241)
dH (14-3-3ζ [1]): -8.76 kcal/mol | stoichiometry N (peptide per 14-3-3ζ) (14-3-3ζ [1]): 0.5

Rnd3 C-terminal peptide (207–241) all_piFar (from UniProt P61587 207-241)
dH (14-3-3ζ [1]): -6.26 kcal/mol | stoichiometry N (peptide per 14-3-3ζ) (14-3-3ζ [1]): 0.5

Rnd3 C-terminal peptide (207–241) 210_240piFar (from UniProt P61587 207-241)
dH (14-3-3ζ [1]): -7.35 kcal/mol | stoichiometry N (peptide per 14-3-3ζ) (14-3-3ζ [1]): 0.5

Rnd3 C-terminal peptide (207–241) 240piFar (from UniProt P61587 207-241)
dH (14-3-3ζ [1]): -3.56 kcal/mol | stoichiometry N (peptide per 14-3-3ζ) (14-3-3ζ [1]): 1

FAM-labeled Rnd3 C-terminal peptide (207–241) 240pi (from UniProt P61587 207-241)
Kd (14-3-3ζ [2]): 1490 nM | koff (14-3-3ζ [2]): 44.2 s⁻¹ | kon (14-3-3ζ [2]): 2.96e+07 M⁻¹ s⁻¹ | Ka (14-3-3ζ [3]): 290000 M⁻¹ | Kd (14-3-3ζ [3]): 3390 nM | koff (14-3-3ζ [3]): 63.9 s⁻¹

Rnd3 207-241 (from UniProt P61587) all_pi
binding against the reference (14-3-3ζ [4]; sites S210,S218): stronger | binding against the reference (14-3-3ζ [1]; sites S210,S218): stronger

FAM-labeled Rnd3 C-terminal peptide (207–241) 240piFar (from UniProt P61587 207-241)
ka,1 (first step of the two-step fit) (14-3-3ζ [2]): 3.92e+07 M⁻¹ s⁻¹ | ka,2 (second step of the two-step fit) (14-3-3ζ [2]): 25.6 s⁻¹ | kd,1 (first step of the two-step fit) (14-3-3ζ [2]): 19.9 s⁻¹ | kd,2 (second step of the two-step fit) (14-3-3ζ [2]): 54.5 s⁻¹ | koff (14-3-3ζ [5]): 8.02 s⁻¹ | Ka (14-3-3ζ [3]): 3.13e+06 M⁻¹ | Kd (14-3-3ζ [3]): 320 nM | ka,1 (two-step fit assuming pS240 binds first; rejected by the paper) (14-3-3ζ [3]): 31.1 μM^−1 s^−1 | ka,2 (two-step fit assuming pS240 binds first; rejected by the paper) (14-3-3ζ [3]): 60.2 s^−1 | kd,1 (two-step fit assuming pS240 binds first; rejected by the paper) (14-3-3ζ [3]): 13 s^−1 | kd,2 (two-step fit assuming pS240 binds first; rejected by the paper) (14-3-3ζ [3]): 345 s^−1 | koff (14-3-3ζ [3]): 10.9 s⁻¹

Rnd3 207-241 (from UniProt P61587) 210_240pi
binding against the reference (14-3-3ζ [4]; sites S210): stronger | binding against the reference (14-3-3ζ [1]; sites S210): stronger

Rnd3 207-241 (from UniProt P61587) 240piFar
other: association constant K (14-3-3ζ [4]; reference: no_piFar, sites S240): stronger; reference 0.13

Rnd3 207-241 (from UniProt P61587) 218_240pi
binding against the reference (14-3-3ζ [1]; sites S218): stronger

FAM-labeled Rnd3 C-terminal peptide (207–241) 218_240pi (from UniProt P61587 207-241)
ka,1 (first step of the two-step fit) (14-3-3ζ [2]): 5.75e+07 M⁻¹ s⁻¹ | ka,2 (second step of the two-step fit) (14-3-3ζ [2]): 62.2 s⁻¹ | kd,1 (first step of the two-step fit) (14-3-3ζ [2]): 35.2 s⁻¹ | kd,2 (second step of the two-step fit) (14-3-3ζ [2]): 38.9 s⁻¹ | Kd (14-3-3ζ [3]): 400 nM | ka,1 (two-step fit assuming pS218 binds first; rejected by the paper) (14-3-3ζ [3]): 16.7 μM^−1 s^−1 | ka,2 (second step of the two-step fit) (14-3-3ζ [3]): 66.2 s⁻¹ | ka,2 (two-step fit assuming pS218 binds first; rejected by the paper) (14-3-3ζ [3]): 29.8 s^−1 | kd,1 (two-step fit assuming pS218 binds first; rejected by the paper) (14-3-3ζ [3]): 53.8 s^−1 | kd,2 (two-step fit assuming pS218 binds first; rejected by the paper) (14-3-3ζ [3]): 8.64 s^−1 | koff (14-3-3ζ [3]): 9.69 s⁻¹ | koff (14-3-3ζ [6]): 8.42 s⁻¹

Rnd3 C-terminal peptide (207–241) all_pi, triply phosphorylated (from UniProt P61587 207-241)
dH (14-3-3ζ [1]): -7.15 kcal/mol | stoichiometry N (peptide per 14-3-3ζ) (14-3-3ζ [1]): 0.5

Rnd3 C-terminal peptide (207–241) 218_240piFar (from UniProt P61587 207-241)
dH (14-3-3ζ [1]): -5.58 kcal/mol | stoichiometry N (peptide per 14-3-3ζ) (14-3-3ζ [1]): 0.5

FAM-labeled Rnd3 C-terminal peptide (207–241) no_piFar (from UniProt P61587 207-241)
Ka (14-3-3ζ [3]): 130000 M⁻¹

Rnd3 C-terminal peptide (207–241) 218_240pi (from UniProt P61587 207-241)
dH (14-3-3ζ [1]): -6.22 kcal/mol | stoichiometry N (peptide per 14-3-3ζ) (14-3-3ζ [1]): 0.5

Rnd3 C-terminal peptide (207–241) 240pi (from UniProt P61587 207-241)
dH (14-3-3ζ [1]): -3.53 kcal/mol | stoichiometry N (peptide per 14-3-3ζ) (14-3-3ζ [1]): 1

B1: 14-3-3ζ protein, P63104 1-245 (natural protein)
chain: T1 chain
stoichiometry N (14-3-3ζ protein, P63104): 2
